Read-outs that look alike come from different tables or passages of the source.
Tests used:
[1] = molecular target: Composition E, MMP9-treated (Homo sapiens (Human)) (UniProt Q14116)
[2] = molecular target: Composition S (Homo sapiens (Human)) (UniProt Q14116)
[3] = molecular target: C086 (SEQ ID NO: 30) (Homo sapiens (Human)) (UniProt Q14116); test: cell-based or functional assay
[4] = molecular target: C143 (human) (UniProt Q14116); test: cell-based or functional assay
[5] = molecular target: C144 (human) (UniProt Q14116); test: cell-based or functional assay
[6] = molecular target: C145 (human) (UniProt Q14116); test: cell-based or functional assay
[7] = molecular target: C146 (Homo sapiens (Human)) (UniProt Q14116); test: cell-based or functional assay
[8] = molecular target: C147 (human) (UniProt Q14116); test: cell-based or functional assay
[9] = molecular target: C148 (human) (UniProt Q14116); test: cell-based or functional assay
[10] = molecular target: C149 (human) (UniProt Q14116); test: cell-based or functional assay
[11] = molecular target: C150 (human) (UniProt Q14116); test: cell-based or functional assay
[12] = molecular target: C151 (human) (UniProt Q14116); test: cell-based or functional assay
[13] = molecular target: C152 (human) (UniProt Q14116); test: cell-based or functional assay
[14] = molecular target: C153 (human) (UniProt Q14116); test: cell-based or functional assay
[15] = molecular target: C154 (human) (UniProt Q14116); test: cell-based or functional assay
[16] = molecular target: C155 (human) (UniProt Q14116); test: cell-based or functional assay
[17] = molecular target: C156 (human) (UniProt Q14116); test: cell-based or functional assay
[18] = molecular target: C157 (human) (UniProt Q14116); test: cell-based or functional assay
[19] = molecular target: C158 (human) (UniProt Q14116); test: cell-based or functional assay
[20] = molecular target: C159 (human) (UniProt Q14116); test: cell-based or functional assay
[21] = molecular target: C160 (human) (UniProt Q14116); test: cell-based or functional assay
[22] = molecular target: C161 (human) (UniProt Q14116); test: cell-based or functional assay
[23] = molecular target: C162 (human) (UniProt Q14116); test: cell-based or functional assay
[24] = molecular target: C163 (human) (UniProt Q14116); test: cell-based or functional assay
[25] = molecular target: C164 (human) (UniProt Q14116); test: cell-based or functional assay
[26] = molecular target: C165 (human) (UniProt Q14116); test: cell-based or functional assay
[27] = molecular target: C166 (human) (UniProt Q14116); test: cell-based or functional assay
[28] = molecular target: C167 (human) (UniProt Q14116); test: cell-based or functional assay
[29] = molecular target: C168 (human) (UniProt Q14116); test: cell-based or functional assay
[30] = molecular target: C190 (Homo sapiens (Human)) (UniProt Q14116); test: cell-based or functional assay
[31] = molecular target: IL-18 WT (SEQ ID NO: 1) (human) (UniProt Q14116); test: cell-based or functional assay
[32] = molecular target: SEQ ID NO 34 (Homo sapiens (Human)) (UniProt Q14116); test: cell-based or functional assay
[33] = molecular target: SEQ ID NO 35 (Homo sapiens (Human)) (UniProt Q14116); test: cell-based or functional assay
[34] = molecular target: SEQ ID NO 36 (Homo sapiens (Human)) (UniProt Q14116); test: cell-based or functional assay
[35] = molecular target: SEQ ID NO 37 (Homo sapiens (Human)) (UniProt Q14116); test: cell-based or functional assay
[36] = molecular target: SEQ ID NO 38 (Homo sapiens (Human)) (UniProt Q14116); test: cell-based or functional assay
[37] = molecular target: SEQ ID NO 39 (Homo sapiens (Human)) (UniProt Q14116); test: cell-based or functional assay
[38] = molecular target: SEQ ID NO 4 (Homo sapiens (Human)) (UniProt Q14116); test: cell-based or functional assay
[39] = molecular target: SEQ ID NO 40 (Homo sapiens (Human)) (UniProt Q14116); test: cell-based or functional assay
[40] = molecular target: SEQ ID NO 41 (Homo sapiens (Human)) (UniProt Q14116); test: cell-based or functional assay
[41] = molecular target: SEQ ID NO 42 (Homo sapiens (Human)) (UniProt Q14116); test: cell-based or functional assay
[42] = molecular target: SEQ ID NO 43 (Homo sapiens (Human)) (UniProt Q14116); test: cell-based or functional assay
[43] = molecular target: SEQ ID NO 46 (Homo sapiens (Human)) (UniProt Q14116); test: cell-based or functional assay
[44] = molecular target: SEQ ID NO 47 (Homo sapiens (Human)) (UniProt Q14116); test: cell-based or functional assay
[45] = molecular target: SEQ ID NO 48 (Homo sapiens (Human)) (UniProt Q14116); test: cell-based or functional assay
[46] = molecular target: SEQ ID NO 5 (Homo sapiens (Human)) (UniProt Q14116); test: cell-based or functional assay
[47] = molecular target: SEQ ID NO 50 (Homo sapiens (Human)) (UniProt Q14116); test: cell-based or functional assay
[48] = molecular target: SEQ ID NO 51 (Homo sapiens (Human)) (UniProt Q14116); test: cell-based or functional assay
[49] = molecular target: SEQ ID NO 52 (Homo sapiens (Human)) (UniProt Q14116); test: cell-based or functional assay
[50] = molecular target: SEQ ID NO 53 (Homo sapiens (Human)) (UniProt Q14116); test: cell-based or functional assay
[51] = molecular target: SEQ ID NO 54 (Homo sapiens (Human)) (UniProt Q14116); test: cell-based or functional assay
[52] = molecular target: SEQ ID NO 55 (Homo sapiens (Human)) (UniProt Q14116); test: cell-based or functional assay
[53] = molecular target: SEQ ID NO 57 (Homo sapiens (Human)) (UniProt Q14116); test: cell-based or functional assay
[54] = molecular target: SEQ ID NO 59 (Homo sapiens (Human)) (UniProt Q14116); test: cell-based or functional assay
[55] = molecular target: SEQ ID NO 6 (Homo sapiens (Human)) (UniProt Q14116); test: cell-based or functional assay
[56] = molecular target: SEQ ID NO 60 (Homo sapiens (Human)) (UniProt Q14116); test: cell-based or functional assay
[57] = molecular target: SEQ ID NO 62 (Homo sapiens (Human)) (UniProt Q14116); test: cell-based or functional assay
[58] = molecular target: SEQ ID NO 9 (Homo sapiens (Human)) (UniProt Q14116); test: cell-based or functional assay
[59] = molecular target: His-tagged human IL-18BP (human) (UniProt O95998); test: AlphaLISA of free IL-18BP
[60] = molecular target: His-tagged human IL-18BP (human) (UniProt O95998); test: AlphaLISA of free IL-18BP; remark: listed apart in the source
[61] = molecular target: His-tagged human IL-18BP (human) (UniProt O95998); test: AlphaLISA of free IL-18BP (analyte titrated in assay buffer against 5 ng/ml His-tagged human IL-18BP; falling signal = IL-18BP bound)

Sequence of His-tagged human IL-18BP (human) (O95998 31-194): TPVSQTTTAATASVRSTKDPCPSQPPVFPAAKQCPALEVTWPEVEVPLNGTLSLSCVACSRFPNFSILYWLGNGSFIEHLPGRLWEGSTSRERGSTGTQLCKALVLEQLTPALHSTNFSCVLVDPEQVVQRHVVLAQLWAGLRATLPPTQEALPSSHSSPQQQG
Sequence of Fc-fused human IL-18 binding protein isoform a (IL-18BPa) (O95998 31-194 limits assumed): as the sequence (O95998 31-194) above
Sequence of IL-18 WT (SEQ ID NO: 1) (Q14116 37-193): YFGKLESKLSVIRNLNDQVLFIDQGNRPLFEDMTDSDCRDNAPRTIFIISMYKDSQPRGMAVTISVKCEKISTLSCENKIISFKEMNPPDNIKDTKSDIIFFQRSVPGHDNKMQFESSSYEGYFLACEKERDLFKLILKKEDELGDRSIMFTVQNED
Sequence of IL-18 WT (SEQ ID NO: 1) (human) (Q14116 37-193): as above
Sequence of SEQ ID NO 34 (Homo sapiens (Human)) (Q14116 other isoform, or with tags, fused parts or gaps): as the sequence (Q14116 37-193) above, with E6K, K53A, S55A counted along it
Sequence of C168 (human) (Q14116 other isoform, or with tags, fused parts or gaps): as the sequence (Q14116 37-193) above, with V11I, C38A, C76A, S105K, C127A counted along it
Sequence of SEQ ID NO 54 (Homo sapiens (Human)) (Q14116 other isoform, or with tags, fused parts or gaps): as the sequence (Q14116 37-193) above, with E6K, C38S, K53A, C68S, K70C, C76S, C127S counted along it
Sequence of C161 (human) (Q14116 other isoform, or with tags, fused parts or gaps): as the sequence (Q14116 37-193) above, with K8R, V11I, C38A, C76A, Q103E, C127A counted along it
Sequence of SEQ ID NO 47 (Homo sapiens (Human)) (Q14116 other isoform, or with tags, fused parts or gaps): as the sequence (Q14116 37-193) above, with C38S, C68S, C76S, C127S counted along it
Sequence of C153 (human) (Q14116 other isoform, or with tags, fused parts or gaps): as the sequence (Q14116 37-193) above, with V11I, D37A, C38A, K53A, C76A, C127A counted along it
Sequence of C144 (human) (Q14116 other isoform, or with tags, fused parts or gaps): as the sequence (Q14116 37-193) above, with V11I, C38A, K53A, T63A, C76A, C127A counted along it
Sequence of SEQ ID NO 37 (Homo sapiens (Human)) (Q14116 37-193 S91A): as the sequence (Q14116 37-193) above, with S55A counted along it
Sequence of SEQ ID NO 60 (Homo sapiens (Human)) (Q14116 other isoform, or with tags, fused parts or gaps): as the sequence (Q14116 37-193) above, with E6K, C38Q, K53A counted along it
Sequence of SEQ ID NO 4 (Homo sapiens (Human)) (Q14116 other isoform, or with tags, fused parts or gaps): as the sequence (Q14116 37-193) above, with E6K, C38A, K53A, C68A, M86C counted along it
Sequence of SEQ ID NO 41 (Homo sapiens (Human)) (Q14116 37-193 K89A/S91A): as the sequence (Q14116 37-193) above, with K53A, S55A counted along it
Sequence of SEQ ID NO 59 (Homo sapiens (Human)) (Q14116 other isoform, or with tags, fused parts or gaps): as the sequence (Q14116 37-193) above, with E6K, C38A, K53A counted along it
Sequence of C086 (SEQ ID NO: 30) (Homo sapiens (Human)) (Q14116 other isoform, or with tags, fused parts or gaps): as the sequence (Q14116 37-193) above, with E6K, V11I, C38A, K53A, T63A, C76A, C127A counted along it
Sequence of SEQ ID NO 62 (Homo sapiens (Human)) (Q14116 other isoform, or with tags, fused parts or gaps): as the sequence (Q14116 37-193) above, with E6K, C38A, K53A, C127A counted along it
Sequence of SEQ ID NO 42 (Homo sapiens (Human)) (Q14116 other isoform, or with tags, fused parts or gaps): as the sequence (Q14116 37-193) above, with E6K, K53A, S55A, T63A counted along it
Sequence of C157 (human) (Q14116 other isoform, or with tags, fused parts or gaps): as the sequence (Q14116 37-193) above, with V11I, C38A, K53A, C76A, C127A, D132A counted along it
Sequence of SEQ ID NO 36 (Homo sapiens (Human)) (Q14116 37-193 K89A): as the sequence (Q14116 37-193) above, with K53A counted along it
Sequence of C148 (human) (Q14116 other isoform, or with tags, fused parts or gaps): as the sequence (Q14116 37-193) above, with F2A, V11I, C38A, K53A, C76A, C127A counted along it
Sequence of C160 (human) (Q14116 other isoform, or with tags, fused parts or gaps): as the sequence (Q14116 37-193) above, with V11I, C38A, K53A, C76A, D110A, C127A counted along it
Sequence of C152 (human) (Q14116 other isoform, or with tags, fused parts or gaps): as the sequence (Q14116 37-193) above, with V11I, S36A, C38A, K53A, C76A, C127A counted along it
Sequence of SEQ ID NO 39 (Homo sapiens (Human)) (Q14116 other isoform, or with tags, fused parts or gaps): as the sequence (Q14116 37-193) above, with E6K, K53A counted along it
Sequence of C150 (human) (Q14116 other isoform, or with tags, fused parts or gaps): as the sequence (Q14116 37-193) above, with V11I, T34A, C38A, K53A, C76A, C127A counted along it
Sequence of SEQ ID NO 40 (Homo sapiens (Human)) (Q14116 other isoform, or with tags, fused parts or gaps): as the sequence (Q14116 37-193) above, with E6K, S55A counted along it
Sequence of C163 (human) (Q14116 other isoform, or with tags, fused parts or gaps): as the sequence (Q14116 37-193) above, with V11I, C38A, C76A, Q103K, C127A counted along it

## Fc-fused human IL-18 binding protein isoform a (IL-18BPa) (from UniProt O95998 31-194) (Fc fusion)
[1]
  IC50 (read off the curve), PD-1 positive NK-92 cells: 8 nM
[2]
  IC50 (read off the curve), PD-1 negative NK-92 cells: 8 nM
[3]
  IL-18BP-mediated IFNγ inhibition NK-92 assay IC50: 22.5 nM
[4]
  IC50 (IL-18BP inhibition of IFNγ, NK92): 1.62 nM
[5]
  IC50 (IL-18BP inhibition of IFNγ, NK92): 7.52 nM
[6]
  IC50 (IL-18BP inhibition of IFNγ, NK92): 10.2 nM
[7]
  IC50 (IL-18BP inhibition of IFNγ, NK92): 733 nM
[8]
  IC50 (IL-18BP inhibition of IFNγ, NK92): 47.6 nM
[9]
  IC50 (IL-18BP inhibition of IFNγ, NK92): 5.05 nM
[10]
  IC50 (IL-18BP inhibition of IFNγ, NK92): 1.17 nM
[11]
  IC50 (IL-18BP inhibition of IFNγ, NK92): 21.3 nM
[12]
  IC50 (IL-18BP inhibition of IFNγ, NK92): 3.62 nM
[13]
  IC50 (IL-18BP inhibition of IFNγ, NK92): 7.85 nM
[14]
  IC50 (IL-18BP inhibition of IFNγ, NK92): 2.22 nM
[15]
  IC50 (IL-18BP inhibition of IFNγ, NK92): 3.71 nM
[16]
  IC50 (IL-18BP inhibition of IFNγ, NK92): 3.23 nM
[17]
  IC50 (IL-18BP inhibition of IFNγ, NK92): 0.681 nM
[18]
  IC50 (IL-18BP inhibition of IFNγ, NK92): 6.08 nM
[19]
  IC50 (IL-18BP inhibition of IFNγ, NK92): 3.98 nM
[20]
  IC50 (IL-18BP inhibition of IFNγ, NK92): 1.81 nM
[21]
  IC50 (IL-18BP inhibition of IFNγ, NK92): 3.18 nM
[22]
  IC50 (IL-18BP inhibition of IFNγ, NK92): 1.07 nM
[23]
  IC50 (IL-18BP inhibition of IFNγ, NK92): 7.29 nM
[24]
  IC50 (IL-18BP inhibition of IFNγ, NK92): 0.823 nM
[25]
  IC50 (IL-18BP inhibition of IFNγ, NK92): 0.456 nM
[26]
  IC50 (IL-18BP inhibition of IFNγ, NK92): 0.885 nM
[27]
  IC50 (IL-18BP inhibition of IFNγ, NK92): 0.44 nM
[28]
  IC50 (IL-18BP inhibition of IFNγ, NK92): 0.809 nM
[29]
  IC50 (IL-18BP inhibition of IFNγ, NK92): 0.176 nM
[30]
  IL-18BP-mediated IFNγ inhibition NK-92 assay IC50: 4.33 nM
[31]
  IC50 (IL-18BP inhibition of IFNγ, NK92): 1.47 nM
  IL-18BP-mediated IFNγ inhibition NK-92 assay IC50: 0.403 nM
[32]
  IC50 (IL-18BP inhibition of IFNγ, NK92): 229 nM
[33]
  IC50 (IL-18BP inhibition of IFNγ, NK92): > 55 nM
[34]
  IC50 (IL-18BP inhibition of IFNγ, NK92): 27.3 nM
[35]
  IC50 (IL-18BP inhibition of IFNγ, NK92): 4.46 nM
[36]
  IC50 (IL-18BP inhibition of IFNγ, NK92): 7.79 nM
[37]
  IC50 (IL-18BP inhibition of IFNγ, NK92): > 703 nM
[38]
  IC50 (IL-18BP inhibition of IFNγ, NK92): 396 nM
[39]
  IC50 (IL-18BP inhibition of IFNγ, NK92): 15 nM
[40]
  IC50 (IL-18BP inhibition of IFNγ, NK92): 37.3 nM
[41]
  IC50 (IL-18BP inhibition of IFNγ, NK92): 1060 nM
[42]
  IC50 (IL-18BP inhibition of IFNγ, NK92): 27.8 nM
[43]
  IC50 (IL-18BP inhibition of IFNγ, NK92): 0.189 nM
[44]
  IC50 (IL-18BP inhibition of IFNγ, NK92): 0.444 nM
[45]
  IC50 (IL-18BP inhibition of IFNγ, NK92): 0.114 nM
[46]
  IC50 (IL-18BP inhibition of IFNγ, NK92): 62.4 nM
[47]
  IC50 (IL-18BP inhibition of IFNγ, NK92): > 1000 nM
[48]
  IC50 (IL-18BP inhibition of IFNγ, NK92): 0.239 nM
[49]
  IC50 (IL-18BP inhibition of IFNγ, NK92): 47.1 nM
[50]
  IC50 (IL-18BP inhibition of IFNγ, NK92): 18.2 nM
[51]
  IC50 (IL-18BP inhibition of IFNγ, NK92): 23.5 nM
[52]
  IC50 (IL-18BP inhibition of IFNγ, NK92): > 1000 nM
[53]
  IC50 (IL-18BP inhibition of IFNγ, NK92): 146 nM
[54]
  IC50 (IL-18BP inhibition of IFNγ, NK92): 654 nM
[55]
  IC50 (IL-18BP inhibition of IFNγ, NK92): 5.85 nM
[56]
  IC50 (IL-18BP inhibition of IFNγ, NK92): 780 nM
[57]
  IC50 (IL-18BP inhibition of IFNγ, NK92): 284 nM
[58]
  IC50 (IL-18BP inhibition of IFNγ, NK92): 961 nM

## IL-18 WT (SEQ ID NO: 1) (from UniProt Q14116 37-193) (ligand)
[59]
  Kd: 0.403 nM
[60]
  Kd: 0.67 nM
[61]
  IC50 (read off the curve): 0.08 nM

— patent US20250197467A1
